Legend:
[1] = biological target: T1, PcRsmA (Penicillium chrysogenum Wis54-1255 (P. rubens Wis54-1255)) (UniProt B6GZ21); test: EMSA; details: LightShift binding buffer 1X, about 10% glycerol, 5 mM MgCl2, 20 fmol biotin probe, 10 ug protein, 20 uL, room temperature 20 min; 5% native PAGE in 0.5X TBE …
T1 sequence: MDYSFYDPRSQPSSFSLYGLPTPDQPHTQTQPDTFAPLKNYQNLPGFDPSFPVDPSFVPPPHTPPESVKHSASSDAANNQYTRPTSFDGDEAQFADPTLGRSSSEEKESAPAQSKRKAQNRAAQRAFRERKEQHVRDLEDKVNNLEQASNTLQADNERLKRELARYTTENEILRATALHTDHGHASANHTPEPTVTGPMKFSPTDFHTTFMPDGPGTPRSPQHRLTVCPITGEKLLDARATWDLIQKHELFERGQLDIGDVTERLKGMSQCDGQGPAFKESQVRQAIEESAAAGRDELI

[2] = biological target: T2, PcYap1 (Penicillium chrysogenum Wis54-1255 (P. rubens Wis54-1255)) (UniProt B6HDY4); test: EMSA; details: LightShift binding buffer 1X, about 10% glycerol, 5 mM MgCl2, 20 fmol biotin probe, 10 ug protein, 20 uL, room temperature 20 min; 5% native PAGE in 0.5X TBE …
T2 sequence: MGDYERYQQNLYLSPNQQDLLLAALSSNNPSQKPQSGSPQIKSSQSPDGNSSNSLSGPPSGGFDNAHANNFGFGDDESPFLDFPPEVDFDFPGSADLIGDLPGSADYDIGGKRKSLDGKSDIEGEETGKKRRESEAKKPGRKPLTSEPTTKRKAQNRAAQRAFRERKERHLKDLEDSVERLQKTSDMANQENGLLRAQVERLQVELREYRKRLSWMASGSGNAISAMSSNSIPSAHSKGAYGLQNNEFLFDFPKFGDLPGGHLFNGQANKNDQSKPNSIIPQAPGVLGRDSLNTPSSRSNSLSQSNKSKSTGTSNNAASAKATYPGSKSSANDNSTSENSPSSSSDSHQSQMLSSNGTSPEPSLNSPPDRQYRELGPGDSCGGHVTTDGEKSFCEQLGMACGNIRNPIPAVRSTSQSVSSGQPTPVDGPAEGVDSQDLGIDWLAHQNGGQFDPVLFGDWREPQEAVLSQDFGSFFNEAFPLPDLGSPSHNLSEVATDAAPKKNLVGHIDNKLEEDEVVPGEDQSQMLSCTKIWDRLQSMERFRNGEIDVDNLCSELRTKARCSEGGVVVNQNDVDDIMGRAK

[3] = biological target: T3, PcRsmA (Penicillium chrysogenum Wis54-1255 (P. …, UniProt B6GZ21 1-299)); test: EMSA; LightShift binding buffer 1X, about 10% glycerol, 5 mM MgCl2, 20 fmol biotin probe, 10 ug protein, 20 uL, room temperature 20 min; 5% native PAGE in 0.5X TBE; pH and salt not given; details: protein: recombinant; tags: C-terminal c-myc-6xHis; chain copies: 2; label: 3' biotin; blunt
T3 sequence: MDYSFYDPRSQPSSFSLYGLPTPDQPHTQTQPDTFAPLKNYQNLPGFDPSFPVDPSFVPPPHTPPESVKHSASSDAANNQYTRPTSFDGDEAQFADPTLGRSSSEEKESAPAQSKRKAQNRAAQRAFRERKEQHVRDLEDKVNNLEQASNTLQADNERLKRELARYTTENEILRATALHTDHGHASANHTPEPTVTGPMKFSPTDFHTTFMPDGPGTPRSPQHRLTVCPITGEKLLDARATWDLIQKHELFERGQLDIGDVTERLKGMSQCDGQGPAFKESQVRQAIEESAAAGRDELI

[4] = biological target: T4, PcYap1 (Penicillium chrysogenum Wis54-1255 (P. …, UniProt B6HDY4 1-582)); test: as above; details: protein: recombinant; tags: C-terminal c-myc-6xHis; chain copies: 2; label: 3' biotin; blunt
T4 sequence: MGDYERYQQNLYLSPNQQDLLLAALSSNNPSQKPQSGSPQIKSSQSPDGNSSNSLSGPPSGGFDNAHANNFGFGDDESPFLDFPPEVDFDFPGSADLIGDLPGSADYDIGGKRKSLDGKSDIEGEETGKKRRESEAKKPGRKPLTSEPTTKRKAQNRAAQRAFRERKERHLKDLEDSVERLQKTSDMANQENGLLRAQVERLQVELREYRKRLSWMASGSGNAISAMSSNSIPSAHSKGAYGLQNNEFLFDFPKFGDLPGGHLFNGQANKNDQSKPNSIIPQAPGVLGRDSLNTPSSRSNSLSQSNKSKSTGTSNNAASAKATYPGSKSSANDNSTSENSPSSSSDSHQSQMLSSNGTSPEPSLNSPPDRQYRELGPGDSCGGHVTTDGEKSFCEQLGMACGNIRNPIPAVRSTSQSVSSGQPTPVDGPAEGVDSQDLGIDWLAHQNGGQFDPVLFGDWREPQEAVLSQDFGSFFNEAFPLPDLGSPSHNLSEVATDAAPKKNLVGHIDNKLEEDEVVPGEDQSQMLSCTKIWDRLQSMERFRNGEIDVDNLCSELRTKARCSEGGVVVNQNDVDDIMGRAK

Molecule	binding [1]	binding [2]	binding result [3]	binding result [4]
AACATCGCCGTCGTTGAGTGCACGTTGCCTACTCTCTCGTGGCTTGGCTGGGCCCACGAGCCCGATTGACTCGACGGTGTTACTTGGGTATCTATGGCCCCGTTTTCTGGCACGGTAATGATAAGTACTTACTAGTCTTCGAGCGGGGGAGTGTTGCTCTGCCCGAGCATCAACGATTGGCCTGA (double strand) [probe 4]	no binding	no binding	–	–
TGTTTATGCTGAGACAACCTGGAGACATTATACGCTTGCAGCCCAGATGCTTACTGGATGGGGCCGCTGGAGCCAGTGTAAAATTAGTAACCGTATCTCGAAGTCGGAGGGTCTTTGGTGGTCTGAGATTTCAGTCGGTCCGCACCGTGGCATTTGCAGACGGTGCGATCAGGCCAATCGTTGATGCTCGG (double strand) [probe 5]	binds	binds	–	–
CCGAGCATCAACGATTGGCCTGATCGCACCGTCTGCAAATGCCACGGTGCGGACCGACTGAAATCTCAGACCACCAAAGACCCTCCGACTTCGAGATACGG (double strand) [dwPta1]	no binding	–	–	–
AflR-RsmA (dsDNA) DNA 1: CGACTGACACAAGAAATAACAATTC DNA 2: GAATTGTTATTTCTTGTGTCAGTCG	–	–	binds	–
PTA1-M1 (dsDNA) DNA 1: GCCAGTGTAAAACTAGTCACCGTATCTC DNA 2: GAGATACGGTGACTAGTTTTACACTGGC	–	–	no binding	no binding
penDE-CRE123 (dsDNA) DNA 1: AGGTCCTGCATTAGCGTACGCCCCAGGTTTAGATCAAAGTTACGTAATTTATATGTA DNA 2: TACATATAAATTACGTAACTTTGATCTAAACCTGGGGCGTACGCTAATGCAGGACCT	–	–	binds	no binding
penDE-CRE123-M1 (dsDNA) DNA 1: AGGTCCTGCATTAGCGTACGCCCCAGGTTTAGATCAAAGCTACGAAATTTATATGTA DNA 2: TACATATAAATTTCGTAGCTTTGATCTAAACCTGGGGCGTACGCTAATGCAGGACCT	–	–	no binding	–
AP1-brlA (dsDNA) DNA 1: AAAACAATACAATTTACTAAAGTCCACTGGGCA DNA 2: TGCCCAGTGGACTTTAGTAAATTGTATTGTTTT	–	–	no binding	binds
AP1-brlA-Mut (dsDNA) DNA 1: AAAACAATACAATTGACTAGAGTCCACTGGGCA DNA 2: TGCCCAGTGGACTCTAGTCAATTGTATTGTTTT	–	–	no binding	no binding
RsmA-2B (dsDNA) DNA 1: CAGTAAGCATCTGGGCTGCAAGCGTATAATGTCTCCAG DNA 2: CTGGAGACATTATACGCTTGCAGCCCAGATGCTTACTG	–	–	no binding	–
RsmA-2C (dsDNA) DNA 1: CTCCAGGTTGTCTCAGCATAAACA DNA 2: TGTTTATGCTGAGACAACCTGGAG	–	–	binds	–
RsmA-2A (dsDNA) DNA 1: CAGTAAGCATCTGGGCTGCAAGCGTATA DNA 2: TATACGCTTGCAGCCCAGATGCTTACTG	–	–	no binding	–
PTA1-WT (dsDNA) DNA 1: GCCAGTGTAAAATTAGTAACCGTATCTC DNA 2: GAGATACGGTTACTAATTTTACACTGGC	–	–	no binding	binds
RsmA-2 (dsDNA) DNA 1: CAGTAAGCATCTGGGCTGCAAGCGTATAATGTCTCCAGGTTGTCTCAGCATAAACA DNA 2: TGTTTATGCTGAGACAACCTGGAGACATTATACGCTTGCAGCCCAGATGCTTACTG	–	–	binds	–
